Experimental findings from the DeepSol protein solubility set are described below.

This data set is described as follows: soluble on expression in E. coli; label from the status in PepcDB or PDB records.
For the sequence “MNTTGETTQPFYSHCDMNDPLCRAERLRTQFDYYRWHSLQPDDNDDVDTYTTDIATRIGKTQRYVCDHLDAIYYLTQLPQLHTVYQQLWHLDDTRLIAITRIISALPTTYYDAIDTHLTRWLTPTQPAQTIPSTRAITRFLRKTITHLGFHLDNTRKPEQYVYIYDAGHGLAGIDALIHAGVAEMFETTLRSIKKTHSCDDSTALQLLLEDKTSVVINVYDTGTGITYTPQGTALPQVPEHLVIRVLGDADVAVSTGYRFTEAMRRFIQGRDGVCRFPGCGVPAQWCDIDHVEEYDLGGVTGAVNAQCLCRHHHNVKTSRRVDCEIGAGGVVTWQIGDRRVVTTPEGVLAGQTFRQRREKKIKKAA”, the “soluble on expression in E. coli” value is reported as “not soluble”.
For “MSLTNHEQVLTDYLAAFIEELVQAGVKEAIISPGSRSTPLALMMAEHPILKIYVDVDERSAGFFALGLAKASKRPVVLLCTSGTAAANYFPAVAEANLSQIPLIVLTADRPHELRNVGAPQAMDQLHLYGSHVKDFTDMALPENSEEMLRYAKWHGSRAVDIAMKTPRGPVHLNFPLREPLVPILEPSPFTATGKKHHHVHIYYTHEVLDDSSIQKMVTECTGKKGVFVVGPIDKKELEQPMVDLAKKLGWPILADPLSGLRSYGALDEVVIDQYDAFLKEAEIIDKLTPEVVIRFGSMPVSKPLKNWLEQLSDIRFYVVDPGAAWKDPIKAVTDMIHCDERFLLDIMQQNMPDDAKDAAWLNGWTSYNKVAREIVLAEMANTTILEEGKIVAELRRLLPDKAGLFIGNSMPIRDVDTYFSQIDKKIKMLANRGANGIDGVVSSALGASVVFQPMFLLIGDLSFYHDMNGLLMAKKYKMNLTIVIVNNDGGGIFSFLPQANEPKYFESLFGTSTELDFRFAAAFYDADYHEAKSVDELEEAIDKASYHKGLDIIEVKTNRHENKANHQALWVKIADALKALDEGHHHHHH” the value was “soluble”.
Under “MGSDKIHHHHHHMLESNPPKSLYRETAGGIGDYCALAGAQRARVAIVGGGFTGLSTALHLAEAGDDVAVLEAQQPGWGASGRNGGQVNPGLKYDPDTIEAMFGPELGPRMIDFSYGAPDFTFGLIKRLSIACDARQNGTIRAAIRPKPQAAVRTTAAQCQRRGMPVSMVDAQAMATRTGTGRYIAGMFDARGGDLHPLKYTIGLAAAARNASARIFGGSEVLSLKREAGRWVLKTANGSVSAEKVLVATNGYTGALWPGLEQSLVPVFSAIAATEPLAPAAAAQILPDRPVLYEAGNITVYYRIDAQNRLLMGGRGPMKPIGDASAIRYLTDYALRLWPALAGVRWTHGWNGRVAITKDHLLHIHEPEDGVLICLGYNGRGVAMASAMGAALAQRLQGRETSPFPMPISPLKPIRFHRFWPLGVKAAILSGRLKDRFGL” stands “not soluble”; under “MAHHHHHHMKLQKQQQQKRMTGLKEKRIACRLTYIWLSGRDSHHDIRSKDRTAYLTTEEVAKHPKELLADGIFPVWNFDGSSTKQVCGADTEILLNPVNAYHCCLPRLSTTVPWILVLAECCLPNGEPTNDNSRAVARRIFERAPEEHPWFGMEQEFFLIKDGHPYGWPPRGFPAPQGPYYCSTGCLCVHGRRYVDLHYEVCLQMGLNISGTNAEVAPGQWEFQVGPCEGIEMGDQLTVARWVLLRILEDDGLDADYRAKPIRGEWNGSGLHTNFSTASTRNENGLSVIYEYVERLKKTISKDIVLYGAENNERLTGKYETSKPNEVTAGVGTRGTSIRIPNAVAAERKGYMEDRRPAGDADPYLVSARLFASCVCIESPELDLISSFHERSWMKFGDLS”, “soluble”; under “MIQARSRRPLSCSLRSSSQNPIATTFLTGGKMDRIVRQILVKLLGGERSVYELIYYQDASLREFFELLNSLRDEGLIEVESGKVRITEKGREVAEKERLKFCGDVECECCEGTGLSINPYFKEILQKYSEIAKDRPETIEVYDQGFISLEGVIRRVEFVYDRGDLNGRIFVVGDDDLFGIAASLTGMPEKVAVVDIDERLINFINRVAEEYSLNVEAFVYDVQQAFPDELKRKFDVFVTDPVETIPGLKLFLSRGVSTLKGVGGAGYFGITTLEASRRKWYEIQRMIHDMGFIITDLRRRFNVYPEDEKNFFRFQEKLPIVRHLQAKVDFNWYNSTLFRIEAVKEPKPIVEGEMIIDEKVYKDDESWATPY”, “not soluble”.
For “MESNNNEKKKVARQSSSFRLRSPSLNALRLQRIFDLFDKNGDGFITVEELSQALTRLGLNADLSDLKSTVESYIQPGNTGLNFDDFSSLHKTLDDSFFGGACGGGENEDDPSSAAENESDLAEAFKVFDENGDGFISARELQTVLKKLGLPEGGEMERVEKMIVSVDRNQDGRVDFFEFKNMMRTVVIPSS” the value was “soluble”.
“MAHHHHHHMGVDVGESAIGVDAVARPIGYGPFSAAAKARLAREKAHKAVETCDSAAAAASATVMKNVSLDTNLYLRLSLAGLPHPSQLQEWAYTSPEWRLAFVRLYRTILRLHNKAVAVSLRTARRQGSEAALSAATGMRATSQTTVAGAAVAATGADNSLAEDKDDYFLRYLLTPDQQEFGNRFVQEEFARHTDADAVAASIFYASWYEYVLQLASGVTAREMTEKEKRILTDEQKETLNSLRSAFLDLRSSQRPKYMP”: the “soluble on expression in E. coli” value is recorded as “not soluble”.
Under “MREETFPGDIAQYFSVIHRAFLKDTKGEYAKYDLNPTNAYILLYLFFNKNSSQSELAQKLVINKGQITRETTKLLSLNFISKEISSKNRTTNVIAISSDGKKVIKKIIDIRNQWWEEKLKLSGVKTNSEFLDSLKKLESILN” stands “not soluble”; under “MIKRNLLVMGLAVLLSACGFQLRGTGTQELSIKELDLSARDAYGTTIKMLKQQLESSGVRVHAGAPYKLVLLSEENSQRTLSYTGGGNSAEYEIGTTLRYEILTHDNLHLLDDKLEVQKVFLHDGNNITGSDQESSETRKEMRRDLIQRMLIRLQLLTPEQLAQLQATAEAKAKAEADALEAARKAEAETPQQSPMELPNQLEHHHHHH”, “soluble”; under “MDETTIRRLTEEDVDIFRAMRLEALRTEPAAYASTAADWEKLSADEWRTRLTQNNVFAAFWNDAPVGIMGLMRQGSSKMAHRATLIMVYVRAEARGTGIARALLEAVKSFAGDNGIRQIELAVSAENPAAASFYKRAGFSQIGCVPGGILHEGREIDDIMMACRVDAEGKE”, “not soluble”.
For “MGSDKIHHHHHHMATTNAASTVRELIREHYSALTQAERKFANALLDNYPAAGLASITIVASNVGVSSPTVARMVKKLGFKGYPEFHKALLSELEAKGVGPTKRRDNWSSEAPQEHLLNRFSQAVTNNLQQTFAHIDTERFDQATRQLADTEKRLYIVGGRITQALADYAFTHFQAVRPGVTHMTSSSGTWPHYVLDMEPGDTLLIFDVRRYETNLLRLTEIVKKRGAQIVLFTDQWGSPISTLADLTFHCRVEIPSGWDSNVATMMLLETMIASVQEQRWPDARDRYERLDELFDKTHFFRKFT” the value was “not soluble”; for “MGSDKIHHHHHHMEELRSGSSVCRVSRRGAFVSSLRISNMEILKRSSDRYATHGGMAILIPYADIVSDGTYTWHGRRYQLPRNAGYEGNFTDSIHGLVKSAYFSIIYKDVDSILLKYALERSGYPSRLNIYVNYAVQHDSLGTVISVENTGNNEAPLVCGSHPYFLYRDFWFIKFSNSAVRLFSGGDLSLRKDESVNFLTKKIEGYYDDSFYSDGMILLVSSDRMIELDRRSMPYFEVYDGKYAERRSLAVEPMTGAPNAYNNKIGLIDLKPGETFLCGFDIRVASI”, “not soluble”.
“MDTTNQSEDIKPCDSDLMESILMFDEPISDILAHNKLWISHARTRSNFFPQEGRHISNQHTEAATSLKMWMLSKNLVVIVKRKDDIFPCKILTRNPENLFVARFLESGKEKHIQVEYSDIIMTRSELEKALPLCQHLIPARNWDDFYIIRDFEKATPYFEQGLSALVKPGQQFELQLEDAPDFYVMATVVKNYRGFLLVEYQNVSCVQKKTMPVFLFHFLMLFQFKRWIHMLSPYCHEIGWGKNEKQEYLKRGPYNRHMNVDLVAGLVKQSTNQKLGAVPEIVFRNNCPVPHRIPEYSACVYLDLDQKRFYFAHKVTTKTCRNNRHFFNISIGKNLVTSKQNNRPYEFHVYHPRILPYSVAKRMEVQIILPPDVKLLPDESNLDGYLRTYCNPCDKHKTSDRVQPSPKIAKKKNGPLLLDDTPDAMFRSRPLLGDNIGAHKEWTNFMNHIPDYKRKDLLKSMDTLKFCEIFRPTPTGALQLTAAEVTGQQECMLRLKVSGEDEPVYIHNADPHLYHLGACLDMELAINFHGEFFDEKPLKKNKNANNGFSSF”: the “soluble on expression in E. coli” value is on record as “not soluble”.
For “MEENGMKSKILIFGGTGYIGNHMVKGSLKLGHPTYVFTRPNSSKTTLLDEFQSLGAIIVKGELDEHEKLVELMKKVDVVISALAFPQILDQFKILEAIKVAGNIKRFLPSDFGVEEDRINALPPFEALIERKRMIRRAIEEANIPYTYVSANCFASYFINYLLRPYDPKDEITVYGTGEAKFAMNYEQDIGLYTIKVATDPRALNRVVIYRPSTNIITQLELISRWEKKIGKKFKKIHVPEEEIVALTKELPEPENIPIAILHCLFIDGATMSYDFKENDVEASTLYPELKFTTIDELLDIFVHDPPPPASAAF” the value was “soluble”; for “MWSEYSLEVVDAVARNGSFSAAAQELHRVPSAVSYTVRQLEEWLAVPLFERRHRDVELTAAGAWFLKEGRSVVKKMQITRQQCQQIANGWRGQLAIAVDNIVRPERTRQMIVDFYRHFDDVELLVFQEVFNGVWDALSDGRVELAIGATRAIPVGGRYTFRDMGMLSWSCVVASHHPLALMDGPFSDDTLRNWPSLVREDTSRTLPKRITWLLDNQKRLVVPDWESSATCISAGLCIGMVPTHFAKPWLNEGKWVALELENPFPDSACCLTWQQNDMSPALTWLLEYLGDSETLNKEWLREPEETPATGD”, “not soluble”.
Under “MSLCQLLGMNCNTPTDIMFSFEGFRRRGGITDHHADGFGIGFFEGKGVRLFHDDKPSVNSPVADLVRAYQIKSENVIAHIRKASQGQTSLANTHPFMREMWGGYWLFAHNGHLIDFFPEQGEFFHPVGTTDSERAFCHILNRLRTRFAARPDDDTLFDAIAGLTHEIRKFGLFNFMLSDGIALFAHASTLLHYIVRQAPFGKARLLDDDVMVDFAEVTTPSDRVAVIATLPLTRDESWSQLAVDELVMFREGNIVRHDRPENPVYMSAEEGLEIARAEGGSHHHHHH” stands “soluble”; under “GSGAVSIASSKVSAQYTSTVPPSHYIETWAKTHPEWKAVEVATGFLGSQKIVTEDWTYKKLNETANQVANLIIHASLHGRAIAVSLDRSLIAFAIIVGIMKSGNTYVPIEAGLPNDRKSFLLRDSRAAMAFVCDNNFDGVELPPETKVLDTKNQSFIENLSTQDTSDILNNYPENLDAYLLYTSGSTGTPKGVRVSRHNLSSFSDAWGKLIGNVAPKSLELGGVGKFLCLASRAFDVHIGEMFLAWRFGLCAVTGERLSMLDDLPRTFRELGVTHAGIVPSLLDQTGLVPEDAPHLVYLGVGGEKMTPRTQQIWSSSDRVALVNVYGPTEVTIGCSAGRILPDSDTRCIGHPLGDSVAHVLAPGSNEHVKKGMAGELVIEGSLVANGYLNRPDAKGFCDINGRKMYRTGDIVRMDADSSILFLGRKDEQVKVRGQRLELGEVSEVIRSLSPTDIDVVTLLLNHPGTSKQFLVSFVASSGAAVRGELRWINENYKEINNSLRQACEQTLPAYMVPDFIIPISFIPLRDTSAKTDAKALEHMFHTLSLGELFGESSSLVNKPTT”, “soluble”; under “MEDLRRYICDNTQKNIVMLVGRKVSDISKIARSYGNACMLRSFQGFRIVKSIYYYEDEVKISADGIVLCKDSLDELLRTVEQNNHVEIRNAVATFYDEMSSMGMNGESMNLNINYLLFQFIHLASEQDDNVNQQEILRLISESSFKTGIERGSRAHMTRFCCEYGDYLSQLRKNVSRGVIGMVEKEVRDNYATNITLKSLSEKYYVNSAYLGQLFRKKYGQSFKDYLNNYRMERAAELLLRTDKKIIQIAEEVGYHDMDYFVNRFIQVKGCTPARFRRQMQSGE”, “not soluble”.
